Measured values: paper doi:10.1101/2023.06.06.543836
pKd: −log10 of the molar value.

Target: CXCL12 (chemokine (C-X-C motif) ligand 12) (UniProt P48061)
Assay: NMR titration

Sequence of CXCL12 (chemokine (C-X-C motif) ligand 12) (P48061 22-89): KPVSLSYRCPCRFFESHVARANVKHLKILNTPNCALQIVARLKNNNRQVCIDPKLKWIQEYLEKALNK

Ac-pep (synthetic peptide corresponding to the HMGB1 acidic IDR) (from UniProt P63158 186-214)
pKd: 6.70
